Measurements reported in patent publication US20220411483A1 (Chugai, published 2022).
Numbering of substitutions follows the chain as printed. Each block holds one binder with its values, some of them ahead of it.

What was measured:
[1] = biological target: T1, human FcγRIIa R type extracellular domain with C-terminal His tag (human, UniProt P12318 34-217); test: SPR, antibody captured, FcgR analyte
T1 construct: extracellular domain; also called FcgRIIaR
T1 sequence (looked up): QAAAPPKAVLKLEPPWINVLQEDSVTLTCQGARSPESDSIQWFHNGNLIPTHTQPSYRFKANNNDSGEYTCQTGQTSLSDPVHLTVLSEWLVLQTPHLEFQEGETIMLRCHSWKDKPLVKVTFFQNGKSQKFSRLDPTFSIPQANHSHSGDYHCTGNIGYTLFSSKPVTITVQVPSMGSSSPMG

[2] = biological target: T2, human FcγRIIb extracellular domain with C-terminal His tag (human, UniProt P31994 43-217); test: SPR, antibody captured, FcgR analyte
T2 construct: extracellular domain; also called FcgRIIb
T2 sequence (looked up): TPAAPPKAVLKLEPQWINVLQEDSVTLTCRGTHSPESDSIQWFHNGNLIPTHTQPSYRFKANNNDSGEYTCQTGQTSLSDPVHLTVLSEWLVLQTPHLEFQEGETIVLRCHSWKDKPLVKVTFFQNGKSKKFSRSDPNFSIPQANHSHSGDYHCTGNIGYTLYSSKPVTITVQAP

[3] = biological target: T3, human FcγRIa extracellular domain with C-terminal His tag (human, UniProt P12314 16-292); test: SPR, antibody captured, FcgR analyte
T3 construct: Whole entry named; also called FcgRIa
T3 sequence (P12314 16-292): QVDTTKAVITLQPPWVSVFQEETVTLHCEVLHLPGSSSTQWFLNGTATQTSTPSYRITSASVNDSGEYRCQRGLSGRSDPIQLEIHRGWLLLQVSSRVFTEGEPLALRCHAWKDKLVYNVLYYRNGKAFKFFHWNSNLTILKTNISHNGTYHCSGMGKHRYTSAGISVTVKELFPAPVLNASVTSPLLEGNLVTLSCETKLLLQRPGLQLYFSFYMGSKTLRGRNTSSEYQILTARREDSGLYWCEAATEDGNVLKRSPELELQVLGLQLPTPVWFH

[4] = biological target: T4, human FcγRIIIa V type extracellular domain with C-terminal His tag (human, UniProt P08637 17-208); test: SPR, KD of IL6R-G1d/IL6R-L divided by KD of variant
T4 construct: extracellular domain; also called FcgRIIIaV
T4 sequence (P08637 17-208 F176V): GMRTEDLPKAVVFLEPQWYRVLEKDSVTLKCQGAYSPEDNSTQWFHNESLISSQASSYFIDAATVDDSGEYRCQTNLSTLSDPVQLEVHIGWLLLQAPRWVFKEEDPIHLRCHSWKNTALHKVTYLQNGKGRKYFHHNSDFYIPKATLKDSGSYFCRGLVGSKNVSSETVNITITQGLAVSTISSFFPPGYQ

[5] = biological target: T5, human FcγRIIa H type extracellular domain with C-terminal His tag (human, UniProt P12318 34-217); test: as above
T5 construct: extracellular domain; also called FcgRIIaH
T5 sequence (looked up): T1 sequence (looked up) with R134H

[6] = biological target: T1, human FcγRIIa R type extracellular …; test: as above
[7] = biological target: T2, human FcγRIIb extracellular domain with …; test: as above
[8] = biological target: T3, human FcγRIa extracellular domain with …; test: as above

B1: IL6R-P691/IL6R-L (antibody, human IgG1, kappa)
heavy: QVQLQESGPGLVKPSETLSLTCAVSGHSISHDHAWSWVRQPPGEGLEWIGFISYSGITNYNPSLQGRVTISRDNSKNTLYLQMNSLRAEDTAVYYCARSLARTTAMDYWGEGTLVTVSSASTKGPSVFPLAPSSKSTSGGTAALGCLVKDYFPEPVTVSWNSGALTSGVHTFPAVLQSSGLYSLSSVVTVPSSSLGTQTYICNVNHKPSNTKVDKKVEPKSCDKTHTCPPCPAPELFGQDSVMLFPPKPKDTLMISRTPEVTCVVVDVSHEDPEVKFNWYVDGVEVHNAKTKPREEQENSTYRVVSVLTVLHQDWLNGKEYKCKVSNKALPAPIEKTISKAKGQPREPQVYTLPPSRDELTKNQVSLTCLVKGFYPSDIAVEWESNGQPENNYKTTPPVLDSDGSFFLYSKLTVDKSRWQQGNVFSCSVMHEALHNHYTQKSLSLSP
light: not shown
Kd [1]: 28 µM | Kd [2]: 2.3 µM | Kd [3]: 0.13 µM | Relative FcgRIIIaV-binding Activity [4]: 0.004 | Relative FcgRIIaH-binding Activity [5]: 0.01 | Relative FcgRIIaR-binding Activity [6]: 0.04 | Relative FcgRIIb-binding Activity [7]: 0.9 | Relative FcgRIa-binding Activity [8]: 0.002

B4: IL6R-P747/IL6R-L (antibody, human IgG1, kappa)
heavy: B1 heavy with K324E
light: not shown
Kd [1]: 27 µM | Kd [2]: 2.7 µM | Kd [3]: 0.09 µM | Relative FcgRIIIaV-binding Activity [4]: 0.006 | Relative FcgRIIaH-binding Activity [5]: 0.012 | Relative FcgRIIaR-binding Activity [6]: 0.04 | Relative FcgRIIb-binding Activity [7]: 0.8 | Relative FcgRIa-binding Activity [8]: 0.004

B7: IL6R-P750/IL6R-L (antibody, human IgG1, kappa)
heavy: B1 heavy with H270P, K324A
light: not shown
Kd [1]: 49 µM | Kd [2]: 4 µM | Kd [3]: 0.23 µM | Relative FcgRIIIaV-binding Activity [4]: 0.006 | Relative FcgRIIaH-binding Activity [5]: 0.013 | Relative FcgRIIaR-binding Activity [6]: 0.02 | Relative FcgRIIb-binding Activity [7]: 0.5 | Relative FcgRIa-binding Activity [8]: 0.001

B10: IL6R-P748/IL6R-L (antibody, human IgG1, kappa)
heavy: B1 heavy with F237L, H270P, K324A, A332H
light: not shown
Kd [1]: 39 µM | Kd [2]: 6.2 µM | Kd [3]: 0.1 µM | Relative FcgRIIIaV-binding Activity [4]: 0.005 | Relative FcgRIIaH-binding Activity [5]: 0.01 | Relative FcgRIIaR-binding Activity [6]: 0.03 | Relative FcgRIIb-binding Activity [7]: 0.3 | Relative FcgRIa-binding Activity [8]: 0.003

B11: IL6R-P752/IL6R-L (antibody, human IgG1, kappa)
heavy: B1 heavy with H270P, K324A, S326H
light: not shown
Kd [1]: 41 µM | Kd [2]: 4.2 µM | Kd [3]: 0.15 µM | Relative FcgRIIIaV-binding Activity [4]: 0.006 | Relative FcgRIIaH-binding Activity [5]: 0.013 | Relative FcgRIIaR-binding Activity [6]: 0.03 | Relative FcgRIIb-binding Activity [7]: 0.5 | Relative FcgRIa-binding Activity [8]: 0.002

B14: IL6R-P727/IL6R-L (antibody, human IgG1, kappa)
heavy: B1 heavy with F237L, H270P, A332H
light: not shown
Kd [1]: 34 µM | Kd [2]: 2.7 µM | Kd [3]: 0.071 µM | Relative FcgRIIIaV-binding Activity [4]: 0.007 | Relative FcgRIIaH-binding Activity [5]: 0.015 | Relative FcgRIIaR-binding Activity [6]: 0.03 | Relative FcgRIIb-binding Activity [7]: 0.8 | Relative FcgRIa-binding Activity [8]: 0.005

B17: IL6R-P737/IL6R-L (antibody, human IgG1, kappa)
heavy: B1 heavy with F237L, H270P, S326H, A332H
light: not shown
Kd [1]: 37 µM | Kd [2]: 4.3 µM | Kd [3]: 0.046 µM | Relative FcgRIIIaV-binding Activity [4]: 0.007 | Relative FcgRIIaH-binding Activity [5]: 0.016 | Relative FcgRIIaR-binding Activity [6]: 0.03 | Relative FcgRIIb-binding Activity [7]: 0.5 | Relative FcgRIa-binding Activity [8]: 0.007

These reach a lower Kd [1]. Values come first.

Kd [1]: 16 µM | Kd [2]: 3 µM | Kd [3]: 0.22 µM | Relative FcgRIIIaV-binding Activity [4]: 0.006 | Relative FcgRIIaH-binding Activity [5]: 0.013 | Relative FcgRIIaR-binding Activity [6]: 0.07 | Relative FcgRIIb-binding Activity [7]: 0.7 | Relative FcgRIa-binding Activity [8]: 0.001
B2: IL6R-P729/IL6R-L (antibody, human IgG1, kappa)
heavy: B1 heavy with H270P
light: not shown

Kd [1]: 10 µM | Kd [2]: 7.7 µM | Kd [3]: 0.19 µM | Relative FcgRIIIaV-binding Activity [4]: 0.004 | Relative FcgRIIaH-binding Activity [5]: 0.003 | Relative FcgRIIaR-binding Activity [6]: 0.11 | Relative FcgRIIb-binding Activity [7]: 0.3 | Relative FcgRIa-binding Activity [8]: 0.002
B3: IL6R-P754/IL6R-L (antibody, human IgG1, kappa)
heavy: B1 heavy with F237L, H270P, K324A, S326H, A332H
light: not shown

Kd [1]: 13 µM | Kd [2]: 4.5 µM | Kd [3]: 0.2 µM | Relative FcgRIIIaV-binding Activity [4]: 0.007 | Relative FcgRIIaH-binding Activity [5]: 0.014 | Relative FcgRIIaR-binding Activity [6]: 0.08 | Relative FcgRIIb-binding Activity [7]: 0.5 | Relative FcgRIa-binding Activity [8]: 0.002
B5: IL6R-P733/IL6R-L (antibody, human IgG1, kappa)
heavy: B1 heavy with H270P, S326H
light: not shown

Kd [1]: 18 µM | Kd [2]: 3 µM | Kd [3]: 0.0074 µM | Relative FcgRIIIaV-binding Activity [4]: 0.005 | Relative FcgRIIaH-binding Activity [5]: 0.01 | Relative FcgRIIaR-binding Activity [6]: 0.06 | Relative FcgRIIb-binding Activity [7]: 0.7 | Relative FcgRIa-binding Activity [8]: 0.043
B6: IL6R-P746/IL6R-L (antibody, human IgG1, kappa)
heavy: B1 heavy with K324A
light: not shown

Kd [1]: 17 µM | Kd [2]: 4.1 µM | Kd [3]: 0.085 µM | Relative FcgRIIIaV-binding Activity [4]: 0.005 | Relative FcgRIIaH-binding Activity [5]: 0.005 | Relative FcgRIIaR-binding Activity [6]: 0.06 | Relative FcgRIIb-binding Activity [7]: 0.5 | Relative FcgRIa-binding Activity [8]: 0.004
B8: IL6R-P755/IL6R-L (antibody, human IgG1, kappa)
heavy: B1 heavy with F237L, H270P, K324E, S326H, A332H
light: not shown

Kd [1]: 19 µM | Kd [2]: 3.5 µM | Kd [3]: 0.24 µM | Relative FcgRIIIaV-binding Activity [4]: 0.007 | Relative FcgRIIaH-binding Activity [5]: 0.013 | Relative FcgRIIaR-binding Activity [6]: 0.06 | Relative FcgRIIb-binding Activity [7]: 0.6 | Relative FcgRIa-binding Activity [8]: 0.001
B9: IL6R-P751/IL6R-L (antibody, human IgG1, kappa)
heavy: B1 heavy with H270P, K324E
light: not shown

Kd [1]: 20 µM | Kd [2]: 3.6 µM | Kd [3]: 0.018 µM | Relative FcgRIIIaV-binding Activity [4]: 0.006 | Relative FcgRIIaH-binding Activity [5]: 0.013 | Relative FcgRIIaR-binding Activity [6]: 0.06 | Relative FcgRIIb-binding Activity [7]: 0.6 | Relative FcgRIa-binding Activity [8]: 0.018
B12: IL6R-P743/IL6R-L (antibody, human IgG1, kappa)
heavy: B1 heavy with F237L, Q239G, M243F, E298Y, A329G, A332S, P333S
light: not shown

Kd [1]: 18 µM | Kd [2]: 2.8 µM | Kd [3]: 0.11 µM | Relative FcgRIIIaV-binding Activity [4]: 0.007 | Relative FcgRIIaH-binding Activity [5]: 0.014 | Relative FcgRIIaR-binding Activity [6]: 0.06 | Relative FcgRIIb-binding Activity [7]: 0.8 | Relative FcgRIa-binding Activity [8]: 0.003
B13: IL6R-P753/IL6R-L (antibody, human IgG1, kappa)
heavy: B1 heavy with H270P, K324E, S326H
light: not shown

Kd [1]: 18 µM | Kd [2]: 3.2 µM | Kd [3]: 0.01 µM | Relative FcgRIIIaV-binding Activity [4]: 0.007 | Relative FcgRIIaH-binding Activity [5]: 0.013 | Relative FcgRIIaR-binding Activity [6]: 0.06 | Relative FcgRIIb-binding Activity [7]: 0.7 | Relative FcgRIa-binding Activity [8]: 0.032
B15: IL6R-P744/IL6R-L (antibody, human IgG1, kappa)
heavy: B1 heavy with F237L, Q239G, M243F, E298Y, S300A, K324A
light: not shown

Kd [1]: 22 µM | Kd [2]: 4 µM | Kd [3]: 0.052 µM | Relative FcgRIIIaV-binding Activity [4]: 0.004 | Relative FcgRIIaH-binding Activity [5]: 0.009 | Relative FcgRIIaR-binding Activity [6]: 0.05 | Relative FcgRIIb-binding Activity [7]: 0.5 | Relative FcgRIa-binding Activity [8]: 0.006
B16: IL6R-P749/IL6R-L (antibody, human IgG1, kappa)
heavy: B1 heavy with F237L, H270P, K324E, A332H
light: not shown

Kd [1]: 26 µM | Kd [2]: 3.1 µM | Kd [3]: 0.005 µM | Relative FcgRIIIaV-binding Activity [4]: 0.007 | Relative FcgRIIaH-binding Activity [5]: 0.014 | Relative FcgRIIaR-binding Activity [6]: 0.04 | Relative FcgRIIb-binding Activity [7]: 0.7 | Relative FcgRIa-binding Activity [8]: 0.064
B18: IL6R-P745/IL6R-L (antibody, human IgG1, kappa)
heavy: B1 heavy with F237L, Q239G, M243F, E298Y, S300A, K324E
light: not shown
